# Where a chain is given by its changes, count along the chain named. In names and notes the source's numbering stands.
# B1: Fl8CE20_II (Salinimicrobium marinum) (protein)
# chain: VFGQVKLPKLINDGMVLQRNSDIKIWGWASKEESISIFFLDKEYNTVADNNGKWSVSLNDLKAGGPFQMQIKGSNSIQLEDIYIGDVWLASGQSNMEIPMGRVSPLYPEEIAKASNEAIRFFEVPKTFDFNEAKEDLEGGEWVPVAANTIEKLSAVAYFFAKDLYAEYDIPIGIINSALGGSPAEAWISEEALKEFPEHHAESLKYQSKELRDSIETADQTRIGKWYSDIQKKDKGVEENWKAAEIDDSSWKTMDIPGYWADTEFGPKNGVVWFRKTINLQDNWTQGATKLLLGRIVDADSVFVNGKFVGNTTYQYPPRRYEIPEGVLKSGENTISIRIINESGRGGFVEEKEYKLISGEKEMDLTGTWKFKLGAEMPRLQGQTFIRWKPVGLYNAMINPLTDYSINGVIWYQGESNADTPWEYEALMTSLIKDWRNKWNQEDLPFLYVQLANFMESKDQPGDSNWARLRDAQLKTLAVPHTGMAVAIDVGEANDIHPLNKKDVGERLARAAKNVAYGEDIVPAGPLFKSFKKEGDSIVISFKNTGGGLVSKNGKSLSHFSIAGKDGKFRWANAEIRGDKIVVNHPEVKDPVAVRYAWADNPEGANLYNEEGLPASPFRTDEWD
# notes: pET28a(+), N-terminal 6xHis tag, expressed in E. coli BL21(DE3), SGNH hydrolase with inserted ancillary domain
# B2: Fl8CE20_II (Salinimicrobium marinum; R314E) (protein)
# chain: B1 chain with R295E
# notes: as for B1
# B3: Fl8CE20_II (Salinimicrobium marinum; R314Q) (protein)
# chain: B1 chain with R295Q
# notes: as for B1
# B4: Fl8CE20_II (Salinimicrobium marinum; D514Q) (protein)
# chain: B1 chain with D495Q
# notes: as for B1
# B5: Fl8CE20_II (Salinimicrobium marinum; D514E) (protein)
# chain: B1 chain with D495E
# notes: as for B1
# B6: Fl8CE20_II (Salinimicrobium marinum; S435A) (protein)
# chain: B1 chain with S416A
# notes: as for B1
# Columns and labels:
# Fl8CE20_II [1] = target: T1, Fl8CE20_II (Salinimicrobium marinum, UniProt A0A918SDW1, K371M); assay: p-nitrophenol release, absorbance […] nm, Michaelis-Menten fit; type: biochemical; settings: 50 mM Tris-HCl pH 8.0, 100 mM NaCl, 5% DMSO, room temperature
# T1 construct: gene GCM10007103_17970; pET28a(+), N-terminal 6xHis tag, expressed in E. coli BL21(DE3), SGNH hydrolase with inserted ancillary domain
# T1 sequence (A0A918SDW1 entry or part of it K371M): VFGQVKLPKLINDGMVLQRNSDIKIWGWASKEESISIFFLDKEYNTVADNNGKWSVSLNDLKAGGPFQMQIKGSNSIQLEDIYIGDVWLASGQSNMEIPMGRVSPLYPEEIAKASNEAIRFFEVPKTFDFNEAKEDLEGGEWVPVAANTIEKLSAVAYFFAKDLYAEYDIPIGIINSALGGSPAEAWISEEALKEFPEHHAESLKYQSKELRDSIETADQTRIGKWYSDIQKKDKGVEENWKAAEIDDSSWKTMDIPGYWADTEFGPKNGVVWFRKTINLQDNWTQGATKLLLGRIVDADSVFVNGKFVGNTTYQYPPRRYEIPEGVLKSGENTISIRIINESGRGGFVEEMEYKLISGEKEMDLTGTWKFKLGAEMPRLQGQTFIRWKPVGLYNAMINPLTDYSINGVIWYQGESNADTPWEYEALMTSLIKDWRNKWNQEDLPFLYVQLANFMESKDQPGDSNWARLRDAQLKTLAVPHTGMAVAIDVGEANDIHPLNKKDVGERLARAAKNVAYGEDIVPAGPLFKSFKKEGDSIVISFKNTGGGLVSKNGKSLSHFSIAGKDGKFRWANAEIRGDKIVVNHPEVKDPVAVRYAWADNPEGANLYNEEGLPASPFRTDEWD
# Fl8CE20_II [2] = target: T2, Fl8CE20_II (Salinimicrobium marinum, UniProt A0A918SDW1, Y335N); assay: as above; type: biochemical; settings: 50 mM Tris-HCl pH 8.0, 100 mM NaCl, 5% DMSO, room temperature
# T2 construct: gene GCM10007103_17970; pET28a(+), N-terminal 6xHis tag, expressed in E. coli BL21(DE3), SGNH hydrolase with inserted ancillary domain
# T2 sequence (A0A918SDW1 entry or part of it Y335N): as the sequence (A0A918SDW1 entry or part of it K371M) above, with Y316N, M352K counted along it
# PpCE20_II = target: T3, PpCE20_II (Pedobacter psychrotolerans, UniProt A0A4R2HIK5); assay: p-nitrophenolate release, stopped with acetonitrile, […] nm; type: biochemical; settings: preferred temperature and pH of the enzyme
# T3 construct: gene EV200_102244; catalytic residues Ser114, Asp518, His520
# T3 sequence (A0A4R2HIK5 entry or part of it): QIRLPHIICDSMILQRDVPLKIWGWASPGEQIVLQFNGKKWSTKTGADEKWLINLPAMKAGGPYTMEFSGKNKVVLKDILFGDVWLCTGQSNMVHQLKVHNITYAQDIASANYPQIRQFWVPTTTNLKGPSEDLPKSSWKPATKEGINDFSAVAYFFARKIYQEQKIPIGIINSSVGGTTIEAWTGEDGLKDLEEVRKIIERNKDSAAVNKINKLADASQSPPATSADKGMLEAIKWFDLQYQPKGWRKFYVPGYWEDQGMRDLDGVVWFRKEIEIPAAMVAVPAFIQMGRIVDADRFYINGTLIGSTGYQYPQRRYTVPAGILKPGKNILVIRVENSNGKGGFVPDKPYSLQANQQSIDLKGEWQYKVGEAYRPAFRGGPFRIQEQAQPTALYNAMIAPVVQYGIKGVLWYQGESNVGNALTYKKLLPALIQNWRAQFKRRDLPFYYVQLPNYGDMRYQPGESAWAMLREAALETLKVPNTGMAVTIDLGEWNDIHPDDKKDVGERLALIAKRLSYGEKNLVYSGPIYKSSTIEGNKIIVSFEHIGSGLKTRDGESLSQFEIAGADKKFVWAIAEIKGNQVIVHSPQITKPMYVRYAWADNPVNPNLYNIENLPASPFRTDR
# purified protein = substrate: CC(=O)Oc1ccc([N+](=O)[O-])cc1; assay: purified protein; type: biochemical, Salinimicrobium marinum; settings: 50 mM Tris-HCl pH 8.0, 100 mM NaCl, 5% DMSO, room temperature
Molecule,KM (Fl8CE20_II [1]),KM (Fl8CE20_II [2]),KM (PpCE20_II),Km (purified protein) [µM],kcat (purified protein) [s⁻¹]
CC(=O)Oc1ccc([N+](=O)[O-])cc1 [pNP-acetate],slight reduction of kcat while showing the same KM as the mutant D513N,mutation of Tyr334 to Asn in the ancillary domain resulted in a decrease in kcat,"In terms of biochemical and kinetic behaviour, all enzymes showed similar properties",,
B1,,,,620,9.70
B2,,,,300,4.67
B3,,,,40,1.3
B4,,,,9890,0.18
B5,,,,2300,0.43
B6,,,,210,4.48

# From article PMC12313940, “Insights into a water-mediated catalytic triad architecture in CE20 carbohydrate esterases” (Nature Communications, 2025)
